From patent US20110189194A1, “USE OF CD95 INHIBITORS FOR THE TREATMENT OF INFLAMMATORY DISORDERS” (Deutsches Krebsforschungszentrum Stiftung des offentlichen …, priority 2008, published 2011)
“Also recorded” adds a separate entry of the source.

B1: CD95-RB69: CD95L-neutralizing trimeric fusion protein: human CD95-ECD (M1-E168) fused to bacteriophage RB69 fibritin foldon domain, with streptag-II (protein)
chain: MVGIWTLLPLVLTSVARLSSKSVNAQVTDINSKGLELRKTVTTVETQNLEGLHHDGQFCHKPCPPGERKARDCTVNGDEPDCVPCQEGKEYTDKAHFSSKCRRCRLCDEGHGLEVEINCTRTQNTKCRCKPNFFCNSTVCEHCDPCTKCEHGIIKECTLTSNTKCKEEGSSGSSGSSGSGYIEDAPSDGKFYVRKDGAWVELPTASGPSSSSSSAWSHPQFEK
modifications: CD95-RB69 fusion protein
notes: CD95L-neutralizing trimeric fusion protein: human CD95-ECD (M1-E168) fused to bacteriophage RB69 fibritin foldon domain, with streptag-II

Legend:
[1] = treated within the first 8 h of injury, compared to placebo, naloxone, or MPSS at later time points; cited from earlier work
mouse CD95L = molecular target: T1, mouse CD95L (Mus musculus, UniProt P41047); experiment: Neutralisation of mouse CD95L-T4 induced apoptosis on Jurkat cells (DEVD-AFC cleavage); type: cell-based; conditions: 250 ng/ml mouse CD95L-T4
T1 construct: T4 (bacteriophage T4 fibritin foldon trimerisation domain)
T1 sequence (P41047 with tags, fused parts or gaps limits assumed): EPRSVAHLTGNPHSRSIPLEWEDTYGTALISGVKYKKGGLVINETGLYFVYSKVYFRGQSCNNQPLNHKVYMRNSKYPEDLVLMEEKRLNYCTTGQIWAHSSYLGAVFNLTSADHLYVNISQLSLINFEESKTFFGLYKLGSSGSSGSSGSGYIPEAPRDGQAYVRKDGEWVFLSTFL
Method: (§1) Mutation of R87S abrogates the ability of the CD95-RB69 protein to inhibit CD95L-mediated killing of Jurkat cells. Jurkat cells were incubated with 250 ng/ml of human (A) or mouse (B) CD95L-T4 in the presence of wild-type and mutant CD95-RB69 in duplicates for each concentration of the fusion proteins. Decreased cell death is represented by low DEVD-AFC cleavage rates.
(§2) While we were using a human CD95 fusion protein in mouse, we had to analyse the binding of the R87S based control-protein for the human CD95/murine CD95L-interaction prior to the studies performed. We addressed this question by examining the ability of the CD95-fusion proteins to neutralise the apoptosis inducing capacity of either human or mouse CD95L on Jurkat cells in vitro.

injured spinal cord [2] = experiment: Immune cell infiltration into the injured spinal cord after SCI (flow cytometry); type: in vivo, mice
Method: SCI models: Transection injury of the spinal cord was performed as previously described (Demjen et al., 2004). For the crush injury model, forceps were held on the spinal cord for 15 seconds resulting in a lateral compression of the spinal cord (Plemel et al., 2008). Immediately following injury and for an additional week mice received antibiotics (Gentamycin, 5 ml/kg of a 0.2 mg/ml solution) to prevent infections. Post-operative care included housing of the animals at 27° C., food and water ad libitum, and manual expression of the bladders once daily.
(§3) Mice were treated intravenously 5 minutes after SCI or induction of thioglycolate-induced peritonitis with 50 μg (solved in 200 μl sterile PBS) of either CD95-RB69 or a mutated form, CD95-(R87S)-RB69, which is unable to bind CD95L.
Stainings were performed on cells derived from bone marrow, peritoneum, blood or spinal cord tissue. For preparation of mouse cells derived from spinal cord tissue, the animals were perfused with HBSS to remove blood from the organs. Then the spinal cord (1 cm around the lesion site) was isolated and lysed for 3 h in thermolysin (0.5 mg/ml, Sigma #T-7902) on a shaker at 37° C. Tissue was incubated for 10 more minutes in trypsin 0.5%-EDTA (Invitrogen #25300096) and finally homogenized by passing 10 times through a Pasteur pipette and through a 40 μm cell strainer (BD #352340).
For all stainings, cells were resuspended in FACS buffer (PBS, 0.2% NaN3) and preincubated in Fc block for 10 minutes before stained with the respective antibodies 30 minutes on ice. For intracellular stainings blood samples were fixed with 4% PFA after Ery Lysis and permeabilized with methanol before the staining. Samples were run on a FACSCantoll flow cytometer (BD) and analyzed using FACSDiva (BD) software or FlowJo software. For all FACS analyses done on cells derived from spinal cord tissue 1,000,000 events were counted.
For all tissue analysis, neutrophils were identified as CD45 positive, GR-1 high-positive and their characteristic forward (FSC) and side scatter (SSC) profile. […]

peritoneum = experiment: Thioglycolate-induced peritonitis, infiltration of neutrophils; type: in vivo, mice
Method: as §3
For thioglycolate-induced peritonitis, 1 ml of 3% thioglycolate broth (Fluka #70157) was injected i.p. in CD95L^f/f;LysMcre and CD95L^f/f mice or in wt mice acutely treated with CD95-RB69 or its respective control. In this model, neutrophils are known to start infiltrating the peritoneum within the first hours, whereas macrophage infiltration peaks at 72 h. At the indicated times, mice were sacrificed, blood samples collected and peritoneal cavities lavaged with 10 ml sterile Hanks balanced salt solution (HBSS; Invitrogen #14170-138) containing 0.25% bovine serum albumin (Roche #10735094001). Total cell counts were performed in a Neubauer hematocytometer (Brand), and differential cell counts were carried out by flow cytometry. Results are expressed as the absolute number of neutrophils or macrophages×10^5/cavity. For every experiment performed, blood immune cell populations were analyzed by the appropriate cell markers.

human CD95L = molecular target: T2, human CD95L (Homo sapiens, UniProt P48023); experiment: Neutralisation of human CD95L-T4 induced apoptosis on Jurkat cells (DEVD-AFC cleavage); type: cell-based; conditions: 250 ng/ml human CD95L-T4
T2 construct: T4 (bacteriophage T4 fibritin foldon trimerisation domain)
T2 sequence (P48023 with tags, fused parts or gaps limits assumed): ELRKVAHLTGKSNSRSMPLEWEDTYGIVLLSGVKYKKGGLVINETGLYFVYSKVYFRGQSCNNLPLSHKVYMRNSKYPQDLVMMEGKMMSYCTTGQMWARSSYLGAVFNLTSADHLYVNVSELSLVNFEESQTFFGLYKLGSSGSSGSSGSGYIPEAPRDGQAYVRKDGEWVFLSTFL
Method: as §1, §2

injured spinal cord [3] = experiment: Gene expression profiling (microarray) of spinal cord 24 h after SCI; type: in vivo, mice; conditions: compared to vehicle-treated
Method: as §3
For tissue, spinal cords were dissected out and RNA was extracted with the mirVana microRNA Extraction Kit essentially according to the manufacturer's protocol (Ambion #AM1560). mRNA of injured mice were represented as normalized to the respective uninjured animals. Cells from peritoneal exudates or bone-marrow derived cells were washed with PBS and taken up in RLT-buffer containing β-mercaptoethanol. RNA was extracted using the RNeasy Mini Kit (Qiagen, #74104).
.Cel files were generated using Affymetrix software and imported into Chipinspector. The data were analyzed by Genomatix Chipinspector as described by the manufacturer's guidelines (Genomatix GmbH, Munich, Germany, http://www.genomatix.de). dChip software was used for hierarchical clustering of datasets (http://biosuntharvard.edu/complab/dchip/). A 5% p-value was applied as a cut-off. […]

[4] = 24 h after SCI, 50 μg i.v. 5 minutes after SCI, 1,000,000 events counted

| Molecule | motor and sensory function of spinal injured patients [1] | neutralisation of the apoptotic activity of mouse CD95L (mouse CD95L) | CD45 cells in injured spinal cord, Events ± SEM (injured spinal cord [2]; [4]) | Neutrophils in injured spinal cord, Events ± SEM (injured spinal cord [2]; [4]) | infiltration of neutrophils into the lesion site (in words) (injured spinal cord [2]; 24 hours after injury, systemic administration) | Neutrophil number ± SEM in peritoneal cavity (peritoneum; 6 h after thioglycolate, 50 μg i.v. 5 minutes after induction) | infiltration of neutrophils into the peritoneum (in words) (peritoneum; 6 hours after thioglycolate injection) | neutralisation of the apoptotic activity of human CD95L (human CD95L) | expression of genes involved in apoptosis (injured spinal cord [3]) | expression of genes involved in the immune response (injured spinal cord [3]) |
| --- | --- | --- | --- | --- | --- | --- | --- | --- | --- | --- |
| C[C@H]1C[C@@H]2[C@H]([C@@H](O)C[C@@]3(C)[C@H]2CC[C@]3(O)C(=O)COC(=O)CCC(=O)O)[C@@]2(C)C=CC(=O)C=C12 [MPSS, methylprednisolone sodium succinate] | significantly improved motor and sensory function |  |  |  |  |  |  |  |  |  |
| B1 |  | efficiently neutralises | CD45: 698 ± 57 Events | Neutrophils: 400 ± 54 Events | decreased; also recorded: reduced | 13.92 ± 1.46 *10^5 | significantly reduced; also recorded: Reduced infiltration | efficiently neutralises | reduced; also recorded: down-regulation | down-regulation |
